The source of these data is patent US20240402190A1.

The target of the assay is SERCA1a, mouse (endogenous, mouse myotubes) (mouse) (UniProt Q8R429). The experiment in a line: cell-based or functional assay.
Sequence of UniProt Q8R429 (Q8R429 whole entry): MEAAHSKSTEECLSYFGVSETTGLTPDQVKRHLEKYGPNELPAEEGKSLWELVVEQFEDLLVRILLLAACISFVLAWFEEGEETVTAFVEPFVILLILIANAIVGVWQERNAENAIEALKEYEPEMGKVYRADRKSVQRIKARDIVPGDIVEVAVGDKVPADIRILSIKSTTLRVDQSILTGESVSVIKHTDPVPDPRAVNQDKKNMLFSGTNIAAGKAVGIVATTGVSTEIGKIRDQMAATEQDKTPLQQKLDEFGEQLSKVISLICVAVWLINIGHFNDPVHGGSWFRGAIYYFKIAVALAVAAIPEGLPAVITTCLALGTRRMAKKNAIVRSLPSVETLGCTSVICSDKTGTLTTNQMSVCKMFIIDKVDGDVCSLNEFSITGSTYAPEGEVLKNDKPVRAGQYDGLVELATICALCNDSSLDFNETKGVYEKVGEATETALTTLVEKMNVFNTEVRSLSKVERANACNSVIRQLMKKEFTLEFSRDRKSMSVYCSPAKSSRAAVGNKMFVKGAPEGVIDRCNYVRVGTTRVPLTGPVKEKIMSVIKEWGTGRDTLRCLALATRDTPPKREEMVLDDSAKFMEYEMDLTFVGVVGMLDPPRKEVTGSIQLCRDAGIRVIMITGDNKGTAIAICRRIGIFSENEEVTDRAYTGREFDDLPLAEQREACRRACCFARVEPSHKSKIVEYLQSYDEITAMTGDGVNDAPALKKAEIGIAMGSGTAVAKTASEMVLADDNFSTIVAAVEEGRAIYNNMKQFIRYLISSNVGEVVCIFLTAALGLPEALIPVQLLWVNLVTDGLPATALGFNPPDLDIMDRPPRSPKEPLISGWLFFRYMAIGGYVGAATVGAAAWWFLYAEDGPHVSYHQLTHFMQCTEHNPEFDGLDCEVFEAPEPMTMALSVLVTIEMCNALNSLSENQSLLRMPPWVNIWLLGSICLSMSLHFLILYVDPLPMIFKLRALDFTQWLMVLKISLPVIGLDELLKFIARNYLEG

On to “NHL-Del (TRIM32 lacking the NHL repeat) expressed in mouse myotubes (from UniProt Q13049 1-357)”, for which the Caffeine response (normalized ratio to vector control) turned out to be 0.97, the KCl response (normalized ratio to vector control) is 0.94 and the Releasable Ca^2+ level from SR (normalized ratio to vector control) is 0.99.

With “wild-type TRIM32 expressed in mouse myotubes (from UniProt Q13049 1-653)”, the Caffeine response (normalized ratio to vector control) amounted to 1.22, the KCl response (normalized ratio to vector control) worked out at 1.27 and the Releasable Ca^2+ level from SR (normalized ratio to vector control) worked out at 1.48.
